Laboratory results published in patent publication US20210261643A1, “INHIBITORS OF P-TEFB MEDIATED TRANSCRIPTION” (The Regents of the University of California, priority 2018, published 2021).

Key:
[1] = test system: HIV reactivation in J-Lat 9.2 cells; assay: HIV reactivation in J-Lat 9.2 latent infection model, FACS of GFP positive cells; type: cell-based; details: J-Lat 9.2 cells, PMA 100 nM
From the text: FIGS. 4A and 4B. Stable expression of HT1 inhibits HIV reactivation. FIG. 4A: Stable expression of HT1 inhibits HIV reactivation from 2D10 cells. 3f:HT1 was stably expressed in 2D10 cells (D-HT cells). […] Error bars represent standard deviation from triplicate FACS analysis. FIG. 4B: Stable expression of HT1 inhibits HIV reactivation from J-Lat 9.2 cells. 3f:HT1 was stably expressed in J-Lat 9.2 cells (L-HT cells). […] Error bars represent standard deviation from triplicate FACS analysis.
To test the effect of HT1 on HIV-1 in T-lymphocyte derived cells, 3f:HT1 was stably expressed in HIV latent infection models 2D10 and J-Lat 9.2 cells (D-HT and L-HT cells respectively), which carry replication-defective, GFP-flagged HIV proviruses. In both 2D10 and J-Lat 9.2, the basal HIV transcription level is undetectable, as measured through GFP expression. Compounds such as the PKC agonist PMA, the histone deacetylase inhibitor SAHA or the BET bromodomain inhibitor JQ1 reactivate HIV transcription and increase GFP-positive cells detected by FACS analysis. 2D10 cells are more sensitive to HIV reactivation than J-Lat 9.2 cells, though they harbor a mutation in the N-terminal sequence of Tat (H13L). 2D10 and D-HT cells were incubated for 24 hrs with PMA (10 nM), SAHA (5 μM) or JQ1 (1 μM) and GFP positive cells were detected by FACS analysis. […]

[2] = biological target: positive transcription elongation factor B (UniProt O60563 1-726; P50750 1-372); assay: cell-based or functional assay
[3] = test system: Tat-dependent gene expression from the HIV promoter; assay: Luciferase reporter assay, pLTR-Luc co-transfected with pTat and pHT in 293T cells; type: cell-based
From the text: FIGS. 2A, 2B, and 2C. A HEXIM1-Tat fusion peptide inhibits gene expression from the HIV promoter. FIG. 2A. Structure of the HEXIM1-Tat fusion peptides used in the study. The functional domains used from HEXIM1 and Tat include a HEXIM1 Arginine Rich Motif (ARM, black box, residues 150-162) that binds RNA, a HEXIM1 inhibitory domain (ID, light grey box, residues 200-211) that inhibits CDK9 through a PYNT motif, and Tat transactivation domain (AD, dark grey box, residues 1-48) that binds to P-TEFb. The conceptual schemes are not drawn to scale. FIG. 2B. Transient expression of HT1 inhibits Tat-induced LTR-driven Luc expression. Upper panel: a schema depicts the reporter assay. A luciferase reporter gene (Luc) is under the control of the HIV promoter (P-HIV) and can be activated by ectopically expressed Tat. The Luc assay was used to titrate the inhibitory effect of HT1-3 on P-HIV transactivation by Tat. Middle panel: increasing amounts of m:HT1, m:HT2 or m:HT3 expressing plasmid (pHT) were co-transfected in 293T cells with a plasmid (pTat) expressing f:Tat and another (pLTR-Luc) expressing Luc under the control of the HIV promoter. Luc activity was plotted as % activity relative to control (empty vector used instead of pHT), depending on the transfected pHT:pTat ratio. Error bars in the graph represent standard deviation from triplicate experiments. FIG. 2C. Transient expression of HT1 inhibits Luc expression from HIV-1 NL43ΔenvLuc. Top schema depicts the reporter assay. A luciferase reporter gene (Luc) is inserted in a replication-defective HIV-1 molecular clone (pNL43ΔenvLuc) in which Luc and Tat are under the control of the HIV promoter (P-HIV). A Luc assay was used to titrate the inhibitory effect of HT1-3 on P-HIV transactivation by Tat. Bottom: increasing amounts of pHT1 were co-transfected in 293T cells with pNL43ΔenvLuc. Luc activity was plotted as % activity relative to control (empty vector used instead of pHT), depending on the transfected amounts of pHT1. Error bars in the graph represent standard deviation from triplicate experiments.
Luciferase (Luc) reporter assays were performed to titrate the potency of each chimera to inhibit Tat-dependent gene expression from the HIV promoter. Effector plasmids included pHT1-3 and pTat, which respectively expressed a Myc-epitope tag chimera (m:HT1-3) and a Flag-epitope tagged Tat (f:Tat). pHT1, pHT2 or pHT3 was transiently co-transfected in 293T cells with pTat and a Luc reporter gene under the control of the HIV promoter (P-HIV, expressed from the plasmid pLTR-Luc). […] Finally, HT1 lead to a 4-fold decrease in Luc expression at a 2:1 ratio. […] Similar results were obtained when co-transfecting pHT1-3 and pTat in NIH1 cells, which stably carry an LTR-Luc reporter gene. Thus, we selected HT1 for further investigation.

[4] = test system: HIV TAR RNA; assay: RNA immunoprecipitation and RT-qPCR with TAR-specific primers in 293T cells; type: binding; details: 293T cells, anti-Myc Ab, RT-qPCR
Method: FIGS. 3A, 3B, 3C and 3D. HT1 prevents Tat from bringing active P-TEFb to TAR. FIG. 3A: HT1 inhibits the kinase activity of P-TEFb subunit CDK9. m:HT1 and/or f:Tat were transiently expressed in 293T cells. Cell lysates were used for IP using anti-Myc Ab (lanes 2-4), or control IgG (lane 1). Immunoprecipitates were incubated with ATP and recombinant GST-CTD proteins for in vitro kinase assay. Six replicate experiments were performed, and mean relative kinase activities are shown in the bar graph to the right. FIG. 3B: HT1 binds to TAR. m:HT1 or m:Tat (or empty vector, EV, as a control) was transiently co-expressed with TAR RNA-expressing pU16TAR in 293T cells. Cell lysates were used for IP using anti-Myc Ab or control IgG. RNA was purified from the immunoprecipitates and submitted to RT-qPCR using TAR-specific primers. Relative TAR enrichment was calculated as qPCR count using anti-Myc Ab minus using IgG, and normalized to EV. Error bars represent standard deviation from triplicate qPCR assays. […] Error bars represent standard deviation from triplicate qPCR assays. FIG. 3D: HT1 competes with Tat for TAR binding. m:HT1 and/or f:Tat were transiently co-expressed with TAR RNA-expressing pU16TAR in 293T cells. Cell lysates were used for IP using anti-Myc Ab or control IgG. RNA was purified from the immunoprecipitates and submitted to RT-qPCR using TAR-specific primers (upper panel). Relative TAR enrichment was calculated as qPCR count using anti-Myc Ab minus using IgG, and normalized to EV. Error bars represent standard deviation from triplicate qPCR assays.
Finally, since HEXIM1 ARM resembles the TAR-binding domain from Tat, we investigated whether HT1 could bind to HIV TAR. m:HT1 or m:Tat was co-expressed in 293T cells with TAR RNA, expressed under RNA Polymerase III dependent H1 promoter, and immunoprecipitated using anti-Myc Ab or IgG as a control. TAR RNAs co-immunoprecipitated with HT1 or Tat were quantified by RT-qPCR analysis. […] To test whether HT1 affects Tat-TAR interactions, increasing amounts of m:HT1 were also co-expressed with a fixed amount of f:Tat and TAR. […] As expected, HT1 also bound to endogenous 7SK snRNA.

Sequence of positive transcription elongation factor B (O60563 whole entry, chain 1 of 2): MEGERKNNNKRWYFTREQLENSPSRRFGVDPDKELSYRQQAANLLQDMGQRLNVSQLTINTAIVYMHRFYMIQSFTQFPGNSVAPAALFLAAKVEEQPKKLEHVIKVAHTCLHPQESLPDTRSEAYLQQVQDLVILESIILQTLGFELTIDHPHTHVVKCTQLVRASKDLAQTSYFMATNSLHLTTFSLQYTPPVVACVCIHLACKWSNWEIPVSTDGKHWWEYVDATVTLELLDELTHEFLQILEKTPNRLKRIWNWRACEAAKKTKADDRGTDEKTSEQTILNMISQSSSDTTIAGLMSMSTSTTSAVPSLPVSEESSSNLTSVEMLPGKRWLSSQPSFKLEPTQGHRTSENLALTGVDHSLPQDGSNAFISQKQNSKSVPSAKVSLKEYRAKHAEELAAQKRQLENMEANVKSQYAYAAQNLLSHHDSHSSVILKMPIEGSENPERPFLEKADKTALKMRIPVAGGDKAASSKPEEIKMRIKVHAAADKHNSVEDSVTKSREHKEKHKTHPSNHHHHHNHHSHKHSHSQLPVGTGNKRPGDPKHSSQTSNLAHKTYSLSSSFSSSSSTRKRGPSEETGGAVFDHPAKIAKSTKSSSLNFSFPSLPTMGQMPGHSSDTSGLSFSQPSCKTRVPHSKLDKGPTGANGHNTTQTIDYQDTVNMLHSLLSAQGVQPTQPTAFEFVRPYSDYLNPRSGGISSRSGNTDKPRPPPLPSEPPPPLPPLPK
Sequence of positive transcription elongation factor B (P50750 whole entry, chain 2 of 2): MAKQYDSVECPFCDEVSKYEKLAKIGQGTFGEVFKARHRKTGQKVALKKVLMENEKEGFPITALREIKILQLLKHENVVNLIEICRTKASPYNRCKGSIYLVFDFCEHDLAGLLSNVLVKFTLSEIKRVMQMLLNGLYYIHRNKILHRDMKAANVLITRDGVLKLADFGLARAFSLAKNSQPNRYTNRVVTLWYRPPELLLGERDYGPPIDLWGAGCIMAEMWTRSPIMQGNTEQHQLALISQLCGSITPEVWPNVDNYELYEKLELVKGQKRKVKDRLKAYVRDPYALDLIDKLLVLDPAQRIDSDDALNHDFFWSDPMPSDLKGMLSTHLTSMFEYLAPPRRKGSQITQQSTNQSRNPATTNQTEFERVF

Molecule: CCCCCCCCCCCCCC(=O)O[C@@H]1[C@@H](C)[C@@]2(O)[C@@H](C=C(CO)C[C@]3(O)C(=O)C(C)=C[C@@H]23)[C@@H]2C(C)(C)[C@]12OC(C)=O [PMA, reference compound]
- increase in GFP expression [1]: 12%

B1: Myc-epitope tagged HEXIM1-Tat chimera HT1 (designed binder)
chain: KKKHRRRPSKKKRHWKPYYKLTWEEKKKFDEKQSLRASRIRAEMFAKGQPVAPYNTTQFLMDDHDQEEPDLVDMEPVDPYLEPWKHPGSQPRTACNNCYCKKCCFHCYACFTRKGLGISYG
- fold decrease in relative kinase activity (CTD-P band intensity normalized with CDK9), in vitro kinase assay on immunoprecipitates with ATP and GST-CTD [2]: 3.1 fold

B2: HT2 (protein)
chain: KKKHRRRPSKKKRHWKPYYKLTWEEKKKVDMEPVDPYLEPWKHPGSQPRTACNNCYCKKCCFHCYACFTRKGLGISYG
- inhibition of Luc expression from the HIV promoter (in words) ([3]; 293T cells, ratio of pHT2 to pTat 2:1): failed to inhibit

B3: HT3 (protein)
chain: FDEKQSLRASRIRAEMFAKGQPVAPYNTTQFLMDDHDQEEPDLVDMEPVDPYLEPWKHPGSQPRTACNNCYCKKCCFHCYACFTRKGLGISYG
- decrease in Luc expression from the HIV promoter ([3]; 293T cells, pHT:pTat ratio 2:1): ≤ 2 fold
- immunoprecipitation of TAR RNA (in words) [4]: failed to bind TAR

B4: THT: fusion protein of TAT ARM, HEXIM CDK9 inhibitory domain and TAT P-TEFb-binding domain (protein)
chain: MEQKLISEEDLRKKRRQRRRAPPGGGGSRIRAEMFAKGQPVAPYNTTQFLMDDHDQEEPDLVDMEPVDPYLEPWKHPGSQPRTACNNCYCKKCCFHCYACFTRKGLGISYG
- inhibition of HIV transcription in luciferase assays (in words) ([3]; luciferase assays performed as in Example 1): potently inhibited
